Measured values taken from patent US20230293713A1, “ANTI-TM4SF1 ANTIBODY DRUG CONJUGATES AND METHODS OF USING SAME” (priority 2020, published 2023).
Like-named read-outs stand apart in the source and are kept apart here. Values belong to the molecule of their own block, whether it stands above or below them.

Columns and labels:
HUVEC = test: Cell killing assay in HUVEC (PrestoBlue viability, 5 days); assay type: cell-based; conditions: Homo sapiens
Method: To assess the effect of anti-TM4SF1 ADCs conjugated to carfilzomib, cytotoxicity of treated cell lines were assessed in cultured endothelial cell (HUVEC) and tumor cells (MiaPaca2 and SKOV3) in vitro. HUVEC was treated with free carfilzomib, CFZ-ND-ADC DAR 2.5, and CFZ-ND-ADC DAR 6.7, and maytansine-ND-ADC (DAR 2.0) and cytotoxicity was assessed (FIG. 2A). Cytotoxicity of HUVEC correlates with CFZ DAR. […] Cell killing assay. […] RPMI/10% FBS for MiaPaca2 and SKOV3). Cells are cultured for overnight at 37° C. degrees. On day 2, exemplary ADCs containing CFZ are serially diluted 5-fold in the culture media, and 100 µL of the diluted compounds is transferred to the cell plates. The final top concentration of the test exemplary ADCs in the cell plates is 333.335 nM and the lowest concentration is 0.0043 nM. […] 10 µl PrestoBlue HS cell viability reagent (ThermoFisher cat# P50201) is added to each well and incubated for 1 hour in CO2 incubator before reading the […] at 570 nm/600 nm excitation and emission through a plate reader (Varioskan™ LUX multimode microplate reader). To assess the effect of various anti-TM4SF1 ADCs conjugated to carfilzomib, cytotoxicity of treated cell lines were assessed. HUVEC was treated with free carfilzomib, and six ADCs (Table 1A) conjugated with carfilzomib (CFZ) with various linkers and/or DAR values, and cytotoxicity was assessed (Table 1B).

[1] = in vivo; cited from earlier work
[2] = molecular target: T1, Transmembrane-4 L six family member-1 (TM4SF1) (human, UniProt P30408 1-202, limits assumed); test: screen, method not described
T1 construct: also called human TM4SF1; hTM4SF1
T1 sequence: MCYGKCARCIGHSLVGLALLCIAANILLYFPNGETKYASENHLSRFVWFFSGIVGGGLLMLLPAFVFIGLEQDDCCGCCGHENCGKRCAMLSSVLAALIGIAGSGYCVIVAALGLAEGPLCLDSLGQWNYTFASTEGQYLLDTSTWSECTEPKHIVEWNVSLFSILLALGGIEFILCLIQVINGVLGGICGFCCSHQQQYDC

binding result [2]: binds
B2: AGX-A08 (antibody, V domains shown)
VH: EVQLQQSGPELVKPGASVKLSCKASGYTVTSYVMHWVKQKPGQGLEWIGYINPYSDVTNCNEKFKGKATLTSDKTSSTAYMELSSLTSEDSAVYYCSSYGGGFAYWGQGTLVTVSA
VL: DIQMTQSPASLSASVGEPVTITCRASKNIYTYLAWYHQKQGKSPQFLVYNARTLAGGVPSRLSGSGSVTQFSLNINTLHREDLGTYFCQHHYDTPYTFGGGTNLEIK
notes: Monoclonal murine antibody; also called murine monoclonal antibody AGX-A08

binding result [2]: binds
B3: AGX-A09 (antibody, V domains shown)
VH: EVQLQQSGPELVKPGASVKMSCKASGYTFSSYVMHWVKQKPGQGLEWIGYINPYSDVTNYNEKFKGKATLTSDRSSNTAYMELSSLTSEDSAVYYCARNYFDWGRGTLVTVSA
VL: DIQMTQSPASLSASVGETVTITCRASKNVYSYLAWFQQKQGKSPQLLVYNAKTLAEGVPSRFSGGGSGTQFSLKINSLQPADFGSYYCQHHYNIPFTFGSGTKLEIK
notes: Monoclonal murine antibody; also called murine monoclonal antibody AGX-A09

binding result [2]: binds
B4: AGX-A04 (antibody, V domains shown)
VH: EVQLQQSGPELVKPGASVKISCKTSGYTFTDYTMHWVRQSHGKSLEWIGSFNPNNGGLTNYNQKFKGKATLTVDKSSSTVYMDLRSLTSEDSAVYYCTRIRATGFDSWGQGTTLTVSS
VL: DIVMSQSPSSLAVSAGEKVTMSCKSSQSLLNSRTRKNYLAWYQQKPGQSPKLLIYWASTRESGVPDRFTGSGSGTDFTLTISNVQAEDLTVYYCKQSYNPPWTFGGGTKLEIK
notes: Monoclonal murine antibody; also called murine monoclonal antibody AGX-A04

binding result [2]: binds
B5: AGX-A07 (antibody, V domains shown)
VH: QIQLVQSGPELKKPGETVKISCKASGYTFTNYGVKWVKQAPGKDLKWMGWINTYTGNPIYAADFKGRFAFSLETSASTAFLQINNLKNEDTATYFCVRFQYGDYRYFDVWGAGTTVTVSS
VL: QIILSQSPAILSASPGEKVTMTCRANSGISFINWYQQKPGSSPKPWIYGTANLASGVPARFGGSGSGTSYSLTISRVEAEDAATYYCQQWSSNPLTFGAGTKLELR
notes: also called murine monoclonal antibody AGX-A07

binding result [2]: binds
B6: AGX-A03 (antibody, V domains shown)
VH: QIQLVQSGPELKKPGETVKISCKASGYSFRDYGMNWVKQAPGRTFKWMGWINTYTGAPVYAADFKGRFAFSLDTSASAAFLQINNLKNEDTATYFCARWVSYGNNRNWFFDFWGAGTTVTVSS
VL: DVLMTQTPLSLPVRLGDQASISCRSSQTLVHSNGNTYLEWYLQKPGQSPKLLIYKVSNRLSGVPDRFSGSGSGTDFTLKISRVETEDLGVYYCFQGSHGPWTFGGGTKLEIK
notes: Monoclonal murine antibody; also called Antibody AGX-A03; murine monoclonal antibody AGX-A03

More lines, now with the values behind:

Molecule: CC(C)C[C@H](NC(=O)[C@H](CCc1ccccc1)NC(=O)CN1CCOCC1)C(=O)N[C@@H](Cc1ccccc1)C(=O)N[C@@H](CC(C)C)C(=O)[C@@]1(C)CO1 [CFZ, (S)-4-Methyl-N—((S)-1-(((S)-4-methyl-1-((R)-2-methyloxiran-2-yl)-1-oxopentan-2-yl)amino)-1-oxo-3-phenylpropan-2-yl)-2-((S)-2-(2-morpholinoacetamido)-4-phenylbutanamido)-pentanamide]
EC50 (HUVEC; FIG. 2A, read-out: EC50, cytotoxicity of HUVEC): 11.9 nM | EC50 (HUVEC; read-out: killing in vitro (EC50 nM) HUVEC): 11.9 nM

Molecule: COc1ccc(/C=C\c2cc(OC)c(OC)c(OC)c2)cc1OP(=O)(O)O [CA4P]
patients who experienced heart attacks while being treated [1]: seven

B1: AGX-A05 (antibody, V domains shown)
VH: EVQVQQSGPELVKPGASVKMSCKASGYTFTSYVMHWVKQKPGQGLEWIGYINPNNDNINYNEKFKGKASLTSDKSSNTVYMELSSLTSEDSAVYYCAGYGNSGANWGQGTLVTVSA
VL: DIQMTQSPASLSASVGETVTITCRTSKNIFNFLAWYHQKQGRSPRLLVSHTKTLAAGVPSRFSGSGSGTQFSLKINSLQPEDFGIYYCQHHYGTPWTFGGGTKLEIK
notes: Monoclonal murine antibody; also called murine monoclonal antibody AGX-A05
binding result [2]: binds
